# In patent US20110143428A1 (Genentech, published 2011):
# Residue numbers refer to the chain shown, from its start.
# B1: anti-VEGF-C IgG VC4 (antibody, V domains shown)
# VH: EVQLVESGGGLVQPGGSLRLSCAASGFTFTDNWIHWVRQAPGKGLEWVGVISPYSGATYYADSVKGRFTISADTSKNTAYLQMNSLRAEDTAVYYCARDADYDYAGWAFDYWGQGTLVTVSS
# VL: DIQMTQSPSSLSASVGDRVTITCRASQDVSTAVAWYQQKPGKAPKLLIYSASFLYSGVPSRFSGSGSGTDFTLTISSLQPEDFATYYCQQSYTTPPTFGQGTKVEIK
# notes: Only the six HVRs are tied to this clone; also called clone VC4
# B2: VC4.4 (antibody, V domains shown)
# VH: B1 VH with A100V, D103Y, G106W, F109L
# VL: B1 VL
# notes: also called clone VC4.4
# B3: VC4.2 (antibody, V domains shown)
# VH: B1 VH with D103A, G106W
# VL: B1 VL
# notes: also called clone VC4.2
# B4: VC4.3 (antibody, V domains shown)
# VH: B1 VH with D31Y, N32S, V50F, Y54G, S55V, A57Y, T58S
# VL: B1 VL with S91T, T93R, T94I, P96Y
# notes: also called clone VC4.3
# B5: anti-VEGF-C antibody mVC4.5 (mIgG2a) (antibody, V domains shown)
# VH: B1 VH with G49A, D103K, G106F
# VL: DIQMTQSPSSLSASVGDRVTITCRASQDVSTAVAWYQQKPGKAPKLLIYSASFLYSGVPSRFSGSGSGTDFTLTISSLQPEDFATYYCQQSYTTPPTFGQGTKVEIKR
# notes: VC4.5 variable domains on a murine IgG2a backbone; also called VC4.5 murine IgG2a form; murine backbone anti-VEGF-C antibody
# B6: VC1.12 (antibody, V domains shown)
# VH: EVQLVESGGGLVQPGGSLRLSCAASGFTFSDSDIHWVRQAPGKGLEWVAWISPYVGFTDYADSVKGRFTISADTSKNTAYLQMNSLRAEDTAVYYCARLFDVIFDYWGQGTLVTVSS
# VL: B5 VL
# notes: also called clone VC1.12
# B7: VC1.12.6 (antibody, V domains shown)
# VH: B6 VH
# VL: B1 VL with T93N
# notes: also called clone VC1.12.6
# B8: VC1.12.4 (antibody, V domains shown)
# VH: B6 VH
# VL: B1 VL with T94S, P96T
# notes: also called clone VC1.12.4
# B9: VC1.12.8 (antibody, V domains shown)
# VH: B6 VH
# VL: B1 VL with T93I
# notes: also called clone VC1.12.8
# B10: VC1.12.5 (antibody, V domains shown)
# VH: B6 VH
# VL: B1 VL with P96T
# notes: also called clone VC1.12.5
# B11: VC1.12.9 (antibody, V domains shown)
# VH: B6 VH
# VL: B1 VL with T94I
# notes: also called clone VC1.12.9
# B12: VC1.12.10 (antibody, V domains shown)
# VH: B6 VH
# VL: B1 VL with T93Y, T94S, P96L
# notes: also called clone VC1.12.10
# B13: VC1.12.3 (antibody, V domains shown)
# VH: B6 VH
# VL: B1 VL with S91T, T93A, T94I
# notes: also called clone VC1.12.3
# B14: VC1.12.1 (antibody, V domains shown)
# VH: B6 VH
# VL: B1 VL with T93N, T94I
# notes: also called clone VC1.12.1
# B15: VC1.12.2 (antibody, V domains shown)
# VH: B6 VH
# VL: B1 VL with T93W, P96L
# notes: also called clone VC1.12.2
# B16: anti-VEGF-C IgG VC3 (antibody, V domains shown)
# VH: EVQLVESGGGLVQPGGSLRLSCAASGFTFTNTDIHWVRQAPGKGLEWVAWISPSSGYTDYADSVKGRFTISADTSKNTAYLQMNSLRAEDTAVYYCARWRDYRFGGVMDYWGQGTLVTVSS
# VL: B1 VL
# notes: Only the six HVRs are tied to this clone; also called clone VC3
# B17: anti-VEGF-C IgG VC1 (antibody, V domains shown)
# VH: B6 VH with V55S, F57Y, D101E
# VL: B1 VL
# notes: Only the six HVRs are tied to this clone; also called clone VC1
# B18: VC4.5Fab (Fab, V domains shown)
# VH: B1 VH with G49A, D103K, G106F
# VL: B5 VL
# B19: VC1.4 (antibody, V domains shown)
# VH: B6 VH with V55S, F57Y, A97V, D101G
# VL: B1 VL
# notes: also called clone VC1.4
# B20: VC1.3 (antibody, V domains shown)
# VH: B6 VH with V55S, F57Y, A97V, D101E
# VL: B1 VL
# notes: also called clone VC1.3
# B21: VC1.6 (antibody, V domains shown)
# VH: B6 VH with V55S, F57Y, A97V
# VL: B1 VL
# notes: also called clone VC1.6
# B22: VC1.10 (antibody, V domains shown)
# VH: B6 VH with V55S, F57Y, A97V, D101G, V102I
# VL: B1 VL
# notes: also called clone VC1.10
# B23: VC1.2 (antibody, V domains shown)
# VH: B6 VH with V55S, F57Y, D101E, V102I
# VL: B1 VL
# notes: also called clone VC1.2
# B24: VC1.8 (antibody, V domains shown)
# VH: B6 VH with V55S, F57Y, A97T, D101T, V102I
# VL: B1 VL
# notes: also called clone VC1.8
# B25: VC1.7 (antibody, V domains shown)
# VH: B6 VH with V55S, F57Y, V102I
# VL: B1 VL
# notes: also called clone VC1.7
# B26: VC1.5 (antibody, V domains shown)
# VH: B6 VH with V55S, F57Y, F100W, D101E
# VL: B1 VL
# notes: also called clone VC1.5
# B27: VC1.11 (antibody, V domains shown)
# VH: B6 VH with V55S, F57Y, A97V, F100Y
# VL: B1 VL
# notes: also called clone VC1.11
# Biological target: T1, hVEGF-C (human, UniProt P49767)
# T1 construct: unlabelled; also called human VEGF-C
# T1 sequence (VEGF-C, looked up): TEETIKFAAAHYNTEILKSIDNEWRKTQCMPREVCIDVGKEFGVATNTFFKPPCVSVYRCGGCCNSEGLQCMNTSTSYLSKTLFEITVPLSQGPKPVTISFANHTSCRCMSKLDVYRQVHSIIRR
# Test: phage competition ELISA: phage-displayed clone incubated with increasing soluble hVEGF-C, unbound phage captured on hVEGF-C coated plate, anti-M13-HRP, OD450
row,Binder,IC50
1,B1,32 nM
2,B2,2.17 nM
3,B3,2.64 nM
4,B4,2.72 nM

# Biological target: T2, biotinylated human VEGF-C (human, UniProt P49767 112-227, limits assumed, biotin conjugated (site not stated))
# T2 construct: Panning used the matured form from R&D Systems; also called biotin conjugated VEGF-C; biotinylated VEGF-C
# T2 sequence: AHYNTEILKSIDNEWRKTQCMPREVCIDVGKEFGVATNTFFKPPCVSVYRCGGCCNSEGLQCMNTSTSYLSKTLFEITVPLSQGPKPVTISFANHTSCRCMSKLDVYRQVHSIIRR
# Test: receptor blocking ELISA: fixed biotin-VEGF-C incubated 2 h with serial dilutions of IgG, unbound VEGF-C captured on immobilized VEGFR3-Fc, streptavidin-HRP, OD450; blocked interaction VEGF-C/VEGFR3. The value stands in brackets after the curve's name in the legend box; the quantity is not named on the sheet, the value agrees with the midpoint of the curve
row,Binder,IC50
1,B5,0.74 nM

# Biological target: T3, VEGF-C C137S
# T3 construct: also called hVEGF-C C137S; human VEGF-C C137S
# T3 VEGF-C: T2 sequence with C26S
# Test: phage competition ELISA as in paragraph 556 with human VEGF-C C137S as antigen: phage-displayed clone, soluble antigen varied, anti-M13-HRP, OD450
row,Binder,IC50
1,B6,32.4 nM
2,B7,32.8 nM
3,B8,7.7 nM
4,B9,13.7 nM
5,B10,28.1 nM
6,B11,4.8 nM
7,B12,16.8 nM
8,B13,23 nM
9,B14,7.29 nM
10,B15,25.9 nM

# Biological target: T1, hVEGF-C
# Test: SPR, BIAcore-3000, 25 C: human IgG captured on CM5 chip (about 500 RU), human VEGF-C injected at 12.5-500 nM, 1:1 Langmuir fit
Binder,Kd,koff,kon
B1,0.97 nM,0.000263 s⁻¹,271000 M⁻¹ s⁻¹
B16,0.92 nM,0.000541 s⁻¹,588000 M⁻¹ s⁻¹
B17,0.17 nM,0.000189 s⁻¹,1.07e+06 M⁻¹ s⁻¹

# Biological target: T4, mature VEGF-C (R&D Systems) (human, UniProt P49767 103-227)
# T4 construct: Bought from R&D Systems; also called human VEGF-C matured form (R&D systems)
# T4 sequence: T1 sequence (VEGF-C, looked up)
# Test: SPR, Biacore (Fab), VC4.5 Fab protein; set-up for the Fab not described (paragraph 557 describes captured IgG)
row,Binder,Kd
1,B18,27.5 nM

# Biological target: T1, hVEGF-C
# Test: phage competition ELISA: phage-displayed clone incubated with increasing soluble hVEGF-C, unbound phage captured on hVEGF-C coated plate, anti-M13-HRP, OD450
# Remark: another data set of the same source
row,Binder,IC50
1,B1,32 nM
2,B16,300 nM
3,B17,38 nM

# Biological target: T1, hVEGF-C
# Test: as above
# Remark: another data set of the same source
row,Binder,IC50
1,B6,5.1 nM
2,B17,21.5 nM
3,B19,40.7 nM
4,B20,22.1 nM
5,B21,15.4 nM
6,B22,17 nM
7,B23,27.1 nM
8,B24,22.5 nM
9,B25,20 nM
10,B26,28 nM
11,B27,25.3 nM
